Assay results: patent US20260042854A1 (SCIWIND BIOSCIENCES USA, published 2026)

B1: P16288 (antibody, human IgG4 S228P, kappa, V domains shown)
VH: QVQLVQSGAEMKKPGASVKVSCKTSGYRFSTYVISWVRQTPGQGLEWMGWISPYTGDIDYAQKFQGRVTITADESTSTAYMELSRLRSDDTAVYYCARERDGYNFPGMDVWGQGTTVTVSS
VL: DIQLTQSPSFLSASVGDRVTITCRASQGISSYLAWYQQKPGRAPKLLIYSASTLQRGVPSRFSGSGSGTDFTLTISSLQPEDYATYYCQQADSFPPSFGPGTKVDIKR
notes: Fully human Fab from a phage library, linked to IgG4 (S228P) constant regions; also called anti-GLP-1R antibody P16288
B2: P16289 (antibody, human IgG4 S228P, kappa, V domains shown)
VH: EVQLVETGGGVVQPGRSLRLSCAASGFTFSSYAMHWVRQAPGKGLEWVAVISYDGSNKYYADSVKGRFTISRDNSKNTLYLQMNSLRAEDTAVYYCAREGYSSSWTYYYYYYMDVWGKGTMVTVSS
VL: DIQLTQSPSSLSASVGDRVTITCRASQGVSRALAWYQQKPGKAPKLLIYDASYLEDGVPSRFSGSGSGTDFTLTISSLQPEDFATYYCQQSYSTPYTFGQGTKLEIKR
notes: Fully human Fab from a phage library, linked to IgG4 (S228P) constant regions; also called anti-GLP-1R antibody P16289

How the values were obtained:
[1] = target: T1, hGLP-1R on the cell membrane (HEK293 cells overexpressing hGLP-1R) (human, UniProt P43220 24-463); assay: cell-based or functional assay
[2] = target: T1, hGLP-1R on the cell membrane (HEK293 …); assay: flow cytometry on HEK293 cells overexpressing hGLP-1R, PE anti-human IgG Fc
[3] = target: T2, extracellular domain of hGLP-1R (NP_002053.3, aa 24-145), recombinant protein (human, UniProt P43220 24-145); assay: ELISA, plate coated with hGLP-1R extracellular domain, anti-human Fc-HRP detection
T2 construct: range 24-145; Expressed as a recombinant protein; also called hGLP-1R recombinant protein

[4] = target: monkey GLP-1R (JN033215.1) on HEK293 cells (monkey); assay: cell-based or functional assay
[5] = target: T1, hGLP-1R on the cell membrane (HEK293 …); assay: cell-based or functional assay; remark: listed apart in the source
[6] = target: T3, mouse GLP-1R (NM_021332.2) on HEK293 cells (mouse, UniProt O35659 22-463); assay: cell-based or functional assay
T3 sequence (looked up): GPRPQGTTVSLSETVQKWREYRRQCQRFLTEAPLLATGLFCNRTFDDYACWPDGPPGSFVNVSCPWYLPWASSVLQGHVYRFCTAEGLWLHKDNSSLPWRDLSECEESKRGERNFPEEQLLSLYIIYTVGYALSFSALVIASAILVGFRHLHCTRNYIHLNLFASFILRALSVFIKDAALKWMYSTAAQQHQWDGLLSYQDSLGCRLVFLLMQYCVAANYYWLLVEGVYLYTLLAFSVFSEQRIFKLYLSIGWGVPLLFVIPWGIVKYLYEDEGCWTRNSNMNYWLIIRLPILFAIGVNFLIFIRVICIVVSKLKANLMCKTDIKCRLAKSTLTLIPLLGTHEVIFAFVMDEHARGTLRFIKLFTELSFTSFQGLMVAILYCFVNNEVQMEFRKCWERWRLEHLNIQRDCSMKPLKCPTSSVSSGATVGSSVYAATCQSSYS

| Binder | IC50, inhibition of GLP-1 (2.5 ng/mL) activity in hGLP-1R-CRE-Luciferase-HEK293 reporter gene assay [1] | EC50 [2] | EC50 [3] | IC50 (nM), inhibition of GLP-1 (1 ng/ml) induced cAMP (HTRF) in HEK293 cells transfected with monkey GLP-1R [4] | IC50 (nM), inhibition of GLP-1 (1 ng/ml) induced cAMP (HTRF) in HEK293 cells transfected with human GLP-1R [5] | IC50 (nM), inhibition of GLP-1 (6 ng/ml) induced cAMP (HTRF) in HEK293 cells transfected with mouse GLP-1R [6] |
| --- | --- | --- | --- | --- | --- | --- |
| B1 | 13.4 nM | 9.9 nM | 13 pM | 162 nM | 211 nM |  |
| B2 | > 2820 nM | > 137 nM | 4.8 pM | > 5500 nM | > 5500 nM | > 5500 nM |
